Source: patent US20080108135A1 (University of California, published 2008)
Where two headings read alike, the source gives them in different places.

B1: F5 scFv (native purified soluble scFv) (scFv, not shown: small tags and cut ends)
scFv: QVQLVESGGGLVQPGGSLRLSCAASGFTFRSYAMSWVRQAPGKGLEWVSAISGRGDNTYYADSVKGRFTISRDNSKNTLYLQMNSLRAEDTAVYYCAKMTSNAFAFDYWGQGTLVTVSSGGGGSGGGGSGGGGSQSVLTQPPSVSGAPGQRVTISCTGSSSNIGAGYGVHWYQQLPGTAPKLLIYGNTNRPSGVPDRFSGFKSGTSASLAITGLQAEDEADYYCQSYDSSLSGWVFGGGTKLTVLG
notes: also called 3TF5; scFv-F5

How the values were obtained:
[1] = target: ErbB2 on tumor cell lines (SKBR3, SK-OV-3, MCF7) (UniProt P04626); experiment: cell-based or functional assay
[2] = target: ErbB2 on tumor cell lines (SKBR3, SK-OV-3, MCF7) (UniProt P04626); experiment: 5.0 × 10^11 phage on about 1.0 × 10^5 SKBR3 cells at 37 C, surface bound phage eluted with low pH glycine, titered on E. coli TG1
[3] = target: ErbB2 on tumor cell lines (SKBR3, SK-OV-3, MCF7) (UniProt P04626)
[4] = target: T1, ErbB2 (form in the assay not stated) (UniProt P04626 23-1255); experiment: method not stated
T1 construct: also called c-erbB-2

[5] = target: T1, ErbB2 (form in the assay not stated); experiment: competition by flow cytometry, panel 'C1 phage binding': soluble scFv inhibits binding of C1 phage; % of maximal MFI

Molecule | Lysed cell fraction (titer of internalized phage), SKBR3 cells [1] | titer of cell surface bound phage, 1st glycine wash [2] | titer of cell surface bound phage, 2nd glycine wash [2] | also measured
C6.5 diabody phage | 1.7e+07 phage titer | 1.8e+07 phage titer | 2.8e+06 phage titer | cells with internalized phage, confocal microscopy, SKBR3 cells [1]: 20 % of cells
C6.5 phage (anti-ErbB2 C6.5 scFv displayed on phage) | 6.8e+07 phage titer | 1.2e+07 phage titer | 5.2e+06 phage titer | 
C6.5cys scFv conjugated to liposomes |  |  |  | Total uptake of scFv-conjugated liposomes by SKBR3 cells [1]: 3.4; share of the liposome uptake that was internalized, SKBR3 cells [1]: 70%
irrelevant anti-Botulinum phage (scFv) | 600000 phage titer |  |  | titer of cell surface bound phage, 1st glycine wash [3]: 600000 phage titer; titer of cell surface bound phage, 2nd glycine wash [3]: 100000 phage titer
B1 |  |  |  | Kd [4]: 0.32 µM; IC50 (read off the curve) [5]: ~0.2 µM
